Results reported in article PMC3045603.

Columns and labels:
[1] = biological target: yeast ScNep1^D90G (Bowen-Conradi syndrome mutation) with an N-terminal hexahistidine tag (S. cerevisiae) (UniProt Q06287); experiment: SEC
[2] = biological target: wild-type yeast ScNep1 with an N-terminal hexahistidine tag (S. cerevisiae) (UniProt Q06287); experiment: SEC

Kd [1] [µM]	stoichiometry N [1]	Kd [2] [µM]	Substance
5.8	2	–	yeast ScNep1^D90G (Bowen-Conradi syndrome mutation) with an N-terminal hexahistidine tag (from UniProt Q06287 1-252) (enzyme)
–	–	134	wild-type yeast ScNep1 with an N-terminal hexahistidine tag (from UniProt Q06287 1-252) (enzyme)
